The supplement of paper PMC7125110
± gives the standard error. For some assays here: Fewer inactive variants are shown than the library holds.

B1: glmS ribozyme (parent)
chain: AUAAAAGCGCCAGAACUACAGAAAUGUAGUUGACGAGGAGGAGGUUUAUCGAAUUUUCGGCGGAUGCCUCCAAA

Columns and labels:
Conditions in all cases: with glucosamine-6-phosphate
[1] = variants of: B1; assay: kcat; higher = faster cleavage; RNA array
Summary of the method: (§1)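 Barcoded ribozyme variants on sequenced MiSeq chips were transcribed in situ by E. coli RNA polymerase and followed at 37 °C through a hybridised Cy3 probe. Glucosamine-6-phosphate at 40 μM to 10 mM in HEPES/KCl/Mg(OAc)2 buffer was flowed in, and tiles were imaged over ~14 h. Signals were normalised to baseline and to non-cleaving reference variants, and per-tile medians were fit to one- or two-exponential decays to give kobs. Weighted Michaelis–Menten fits across concentrations gave kcat and KM.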

[2] = variants of: B1; assay: self-cleavage kobs at 10000 uM GlcN6P; higher = faster cleavage; RNA array
Summary of the method: as §1

[3] = variants of: B1; assay: self-cleavage kobs at 40 uM GlcN6P; higher = faster cleavage; RNA array
Summary of the method: as §1

[4] = variants of: B1; assay: self-cleavage kobs at 640 uM GlcN6P; higher = faster cleavage; RNA array
Summary of the method: as §1

[5] = variants of: B1; assay: KM; higher = weaker cofactor use; RNA array
Summary of the method: as §1

[6] = variants of: B1; assay: self-cleavage kobs at 160 uM GlcN6P; higher = faster cleavage; RNA array
Summary of the method: as §1

[7] = variants of: B1; assay: self-cleavage kobs at 2500 uM GlcN6P; higher = faster cleavage; RNA array
Summary of the method: as §1

Variant | kcat [1] | self-cleavage kobs at 10000 uM GlcN6P [2] | self-cleavage kobs at 40 uM GlcN6P [3] | self-cleavage kobs at 640 uM GlcN6P [4] | KM [5] | self-cleavage kobs at 160 uM GlcN6P [6] | self-cleavage kobs at 2500 uM GlcN6P [7]
U54C G59U | 4.57e-05 ± 2.2e-05 s⁻¹ | 2.45e-05 ± 1.2e-05 s⁻¹ |  |  |  |  | 
G51U C58G | 1.13e-05 ± 4.5e-06 s⁻¹ | < 1e-05 s⁻¹ | < 1e-05 s⁻¹ | < 1e-05 s⁻¹ |  |  | 
G51U U54A | < 1e-05 s⁻¹ |  |  |  |  |  | 
G51A G59A C70U | 1.55e-05 ± 3.5e-06 s⁻¹ | < 1e-05 s⁻¹ | < 1e-05 s⁻¹ |  |  |  | 
A53G U56G | 0.0121 ± 0.004 s⁻¹ | 0.0161 ± 0.0025 s⁻¹ | 0.000497 ± 5.8e-05 s⁻¹ | 0.00411 ± 0.00066 s⁻¹ | 1150 ± 530 µM | 0.00116 ± 0.00024 s⁻¹ | 0.00635 ± 0.0012 s⁻¹
A53G U56C | 0.00882 ± 0.0023 s⁻¹ | 0.0073 ± 0.0011 s⁻¹ | 0.000169 ± 2.5e-05 s⁻¹ | 0.00135 ± 0.00025 s⁻¹ | 2730 ± 950 µM | 0.000447 ± 0.00011 s⁻¹ | 0.00428 ± 0.001 s⁻¹
C50U C58G | 1.24e-05 ± 3.2e-06 s⁻¹ |  | < 1e-05 s⁻¹ |  |  |  | 
C50G G60U C61U U69A | 7.69e-05 ± 1.1e-05 s⁻¹ |  |  | 7.91e-05 ± 2.6e-05 s⁻¹ |  | 0.000102 ± 3.2e-05 s⁻¹ | 7.43e-05 ± 1e-05 s⁻¹
C50U G60U C70U | 1.49e-05 ± 6e-06 s⁻¹ |  |  |  |  |  | 
U55A A64G | 0.0275 ± 0.012 s⁻¹ | 0.0227 ± 0.0054 s⁻¹ | 0.000991 ± 0.00014 s⁻¹ | 0.0094 ± 0.0023 s⁻¹ |  | 0.00181 ± 0.00043 s⁻¹ | 0.0275 ± 0.0092 s⁻¹
U55A A64C | 0.000188 ± 3.5e-05 s⁻¹ | 0.000149 ± 1.3e-05 s⁻¹ |  | 2.82e-05 ± 1.2e-05 s⁻¹ |  |  | 0.000144 ± 2.3e-05 s⁻¹
U54G U55C | 0.00147 ± 0.0003 s⁻¹ | 0.00156 ± 0.00037 s⁻¹ |  | 0.000646 ± 9.5e-05 s⁻¹ | 670 ± 280 µM | 0.00036 ± 8.1e-05 s⁻¹ | 0.0012 ± 0.00027 s⁻¹
G51U U57G | < 1e-05 s⁻¹ | < 1e-05 s⁻¹ |  |  |  |  | 
A53G C67U | 0.0134 ± 0.0047 s⁻¹ | 0.0111 ± 0.0015 s⁻¹ | 0.000512 ± 6.3e-05 s⁻¹ | 0.00617 ± 0.0011 s⁻¹ | 1400 ± 680 µM | 0.000969 ± 0.00016 s⁻¹ | 0.0175 ± 0.0045 s⁻¹
U54A C61U | 3.19e-05 ± 4.4e-07 s⁻¹ | 2.74e-05 ± 1e-05 s⁻¹ | < 1e-05 s⁻¹ |  | 1620 ± 86 µM |  | 
G51U C68A | 2.77e-05 ± 5e-06 s⁻¹ |  |  |  |  |  | 
C50U U69C | 2.88e-05 ± 9.3e-06 s⁻¹ |  |  |  |  | 4.48e-05 ± 1.5e-05 s⁻¹ | 4.75e-05 ± 1.5e-05 s⁻¹
C50U U69G | 2.82e-05 ± 7.6e-06 s⁻¹ |  |  |  |  | 3.94e-05 ± 1.2e-05 s⁻¹ | 3.39e-05 ± 1.4e-05 s⁻¹
C50U U69A | 2.06e-05 ± 3.7e-06 s⁻¹ |  |  |  |  |  | 
A52G C68A C70U | 1.69e-05 ± 3.4e-06 s⁻¹ |  |  |  |  |  | 
C50U G66U C70G | 4.59e-05 ± 1.9e-05 s⁻¹ |  |  |  |  |  | 
U54G U65A | 0.00375 ± 0.00091 s⁻¹ | 0.00315 ± 0.00065 s⁻¹ | 9.07e-05 ± 1.5e-05 s⁻¹ | 0.0008 ± 0.00014 s⁻¹ | 2250 ± 730 µM | 0.000213 ± 3.8e-05 s⁻¹ | 0.00199 ± 0.00034 s⁻¹

Variant | kcat [1] | self-cleavage kobs at 10000 uM GlcN6P [2] | self-cleavage kobs at 40 uM GlcN6P [3] | self-cleavage kobs at 640 uM GlcN6P [4] | KM [5] | self-cleavage kobs at 160 uM GlcN6P [6] | self-cleavage kobs at 2500 uM GlcN6P [7]
U49C C71G | 1.02e-05 ± 5.3e-07 s⁻¹ |  |  |  |  |  | 
C50G U55G C67G | 2.81e-05 ± 6.9e-06 s⁻¹ |  |  |  |  |  | 
C50U C61G | 1.39e-05 ± 3.3e-06 s⁻¹ |  |  |  |  |  | 
C50G U56G | 4.44e-05 ± 8.9e-06 s⁻¹ |  |  |  |  | 4.35e-05 ± 1.5e-05 s⁻¹ | 5.17e-05 ± 2.1e-05 s⁻¹
A52U A64G C68U | 6.78e-05 ± 4.7e-06 s⁻¹ | 6.09e-05 ± 2.2e-05 s⁻¹ |  |  | 741 ± 230 µM |  | 5.62e-05 ± 2.2e-05 s⁻¹
C50A C71U | 1.86e-05 ± 6.3e-07 s⁻¹ | 1.86e-05 ± 8.6e-06 s⁻¹ |  |  | 296 ± 82 µM |  | 
C50A C58U | 1.33e-05 ± 5.8e-06 s⁻¹ |  |  | < 1e-05 s⁻¹ |  |  | 
U54C C58A | 0.000427 ± 0.0001 s⁻¹ | 0.000361 ± 7.7e-05 s⁻¹ |  | 6.93e-05 ± 1.1e-05 s⁻¹ | 3720 ± 1300 µM |  | 0.000153 ± 2.3e-05 s⁻¹
C50U G66A | 0.000123 ± 5.1e-05 s⁻¹ | 4.11e-05 ± 9.9e-06 s⁻¹ |  |  |  |  | 
G51A G62U | < 1e-05 s⁻¹ |  |  |  |  | < 1e-05 s⁻¹ | 
A52C C70A | 1.34e-05 ± 4e-06 s⁻¹ |  |  |  |  |  | 
A52C C70G | 3.19e-05 ± 1.1e-05 s⁻¹ |  |  | 3.3e-05 ± 1e-05 s⁻¹ |  |  | 4.57e-05 ± 1.4e-05 s⁻¹
C50G A64U | 5.29e-05 ± 1.7e-05 s⁻¹ |  |  | 9.1e-05 ± 2.3e-05 s⁻¹ |  | 6.24e-05 ± 1.5e-05 s⁻¹ | 5.11e-05 ± 1.7e-05 s⁻¹
C50G U69C | 0.000107 ± 2.1e-05 s⁻¹ | 9.16e-05 ± 1.9e-05 s⁻¹ | 0.000118 ± 3.6e-05 s⁻¹ | 9.95e-05 ± 1.7e-05 s⁻¹ |  | 9.81e-05 ± 2.6e-05 s⁻¹ | 0.000193 ± 3.4e-05 s⁻¹
U49G C71G | 7.69e-05 ± 4.8e-06 s⁻¹ | 7.21e-05 ± 9.4e-06 s⁻¹ |  | 4.8e-05 ± 8.8e-06 s⁻¹ | 427 ± 120 µM |  | 6.83e-05 ± 1.3e-05 s⁻¹
U49A U69G | 5.15e-05 ± 2.2e-05 s⁻¹ |  |  | 4.76e-05 ± 1.8e-05 s⁻¹ |  |  | 8.54e-05 ± 1.8e-05 s⁻¹
G51U C70G | 3.09e-05 ± 1.2e-05 s⁻¹ |  |  | 5.38e-05 ± 1.4e-05 s⁻¹ |  |  | 4.11e-05 ± 1e-05 s⁻¹
A53C G59C | < 1e-05 s⁻¹ | < 1e-05 s⁻¹ | < 1e-05 s⁻¹ | < 1e-05 s⁻¹ |  |  | 
G51A G66C | < 1e-05 s⁻¹ |  |  |  | 510 ± 240 µM |  | 
A53G C58G | 0.000112 ± 2.4e-06 s⁻¹ | 9.67e-05 ± 9.9e-06 s⁻¹ |  | 3.28e-05 ± 1.1e-05 s⁻¹ | 1580 ± 120 µM |  | 6.79e-05 ± 1.2e-05 s⁻¹
U54C U56G | 0.0154 ± 0.0051 s⁻¹ | 0.0133 ± 0.0027 s⁻¹ | 0.000282 ± 4.7e-05 s⁻¹ | 0.0032 ± 0.0011 s⁻¹ | 2680 ± 1100 µM | 0.000649 ± 0.00019 s⁻¹ | 
